From article PMC3280215 (Science (New York, N.y.), 2011)

B1: PGT 128 VH H52aA (antibody, V domains shown)
VH: QPQLQESGPTLVEASETLSLTCAVSGDSTAACNSFWGWVRQPPGKGLEWVGSLSACASYWNRGWTYHNPSLKSRLTLALDTPKNLVFLKLNSVTAADTATYYCARFGGEVLRYTDWPKPAWVDLWGRGTLVTVSS
VL: QSALTQPPSASGSPGQSITISCTGTSNNFVSWYQQHAGKAPKLVIYDVNKRPSGVPDRFSGSKSGNTASLTVSGLQTDDEAVYYCGSLVGNWDVIFGGGTKLTVL
B2: PGT 127 (format not stated for the experiment) (antibody, V domains shown)
VH: QPQLQESGPGLVEASETLSLTCTVSGDSTGRCNYFWGWVRQPPGKGLEWIGSLSHCRSYYNTDWTYHNPSLKSRLTISLDTPKNQVFLRLTSVTAADTATYYCARFGGEVLVYRDWPKPAWVDLWGRGTLVTVSS
VL: QSALTQPPSASGSPGQSITISCTGTSNNFVSWYQQYPGKAPKLVIYEVNKRPSGVPDRFSGSKSGSTASLTVSGLQADDEGVYYCSSLVGNWDVIFGGGTKLTVL
B3: PGT 127 IgG (antibody, V domains shown)
VH: QPQLQESGPGLVEASETLSLTCTVSGDSTGRCNYFWGWVRQPPGKGLEWIGSLSHCRSYYNTDWTYHNPSLKSRLTISLDTPKNQVFLRLTSVTAADTATYYCARFGGEVLVYRDWPKPAWVDLWGRGTLVTVSS
VL: QSALTQPPSASGSPGQSITISCTGTSNNFVSWYQQYPGKAPKLVIYEVNKRPSGVPDRFSGSKSGSTASLTVSGLQADDEGVYYCSSLVGNWDVIFGGGTKLTVL
B4: PGT 128 (format not stated for the experiment) (antibody, V domains shown)
VH: QPQLQESGPTLVEASETLSLTCAVSGDSTAACNSFWGWVRQPPGKGLEWVGSLSHCASYWNRGWTYHNPSLKSRLTLALDTPKNLVFLKLNSVTAADTATYYCARFGGEVLRYTDWPKPAWVDLWGRGTLVTVSS
VL: QSALTQPPSASGSPGQSITISCTGTSNNFVSWYQQHAGKAPKLVIYDVNKRPSGVPDRFSGSKSGNTASLTVSGLQTDDEAVYYCGSLVGNWDVIFGGGTKLTVL
B5: Fab PGT 128 (Fab, V domains shown)
VH: QPQLQESGPTLVEASETLSLTCAVSGDSTAACNSFWGWVRQPPGKGLEWVGSLSHCASYWNRGWTYHNPSLKSRLTLALDTPKNLVFLKLNSVTAADTATYYCARFGGEVLRYTDWPKPAWVDLWGRGTLVTVSS
VL: QSALTQPPSASGSPGQSITISCTGTSNNFVSWYQQHAGKAPKLVIYDVNKRPSGVPDRFSGSKSGNTASLTVSGLQTDDEAVYYCGSLVGNWDVIFGGGTKLTVL
B6: Fab PGT 127 (Fab, V domains shown)
VH: QPQLQESGPGLVEASETLSLTCTVSGDSTGRCNYFWGWVRQPPGKGLEWIGSLSHCRSYYNTDWTYHNPSLKSRLTISLDTPKNQVFLRLTSVTAADTATYYCARFGGEVLVYRDWPKPAWVDLWGRGTLVTVSS
VL: QSALTQPPSASGSPGQSITISCTGTSNNFVSWYQQYPGKAPKLVIYEVNKRPSGVPDRFSGSKSGSTASLTVSGLQADDEGVYYCSSLVGNWDVIFGGGTKLTVL
B7: PGT 128 IgG (antibody, V domains shown)
VH: QPQLQESGPTLVEASETLSLTCAVSGDSTAACNSFWGWVRQPPGKGLEWVGSLSHCASYWNRGWTYHNPSLKSRLTLALDTPKNLVFLKLNSVTAADTATYYCARFGGEVLRYTDWPKPAWVDLWGRGTLVTVSS
VL: QSALTQPPSASGSPGQSITISCTGTSNNFVSWYQQHAGKAPKLVIYDVNKRPSGVPDRFSGSKSGNTASLTVSGLQTDDEAVYYCGSLVGNWDVIFGGGTKLTVL

Assays:
[1] = target: gp120 (of the ELISA) (HIV-1, strain  for ELISA; …, UniProt Q75760); test: ELISA
[2] = target: HIV-1 YU2 Env on the cell surface (HIV-1 YU2, UniProt P35961); test: flow cytometry on cells

Row | Binder | binding result [1] | binding result [2]
1 | B1 | binds | –
2 | B2 | binds | –
3 | B3 | – | binds
4 | B4 | binds | –
5 | B5 | – | binds
6 | B6 | – | binds
7 | B7 | – | binds
